According to patent US20210309732A1 (ELIXIRON IMMUNOTHERAPEUTICS HONG KONG, published 2021):

What follows are binders tested against T1, recombinant human GM-CSF (human, UniProt P04141 18-144) (assay: ELISA on coated rhGM-CSF, UBA relative to 1D2).
T1 construct: also called rhGM-CSF; CSF2
Text: Some of the residues in the CDRs are essential for epitope binding affinity and/or specificity. A number of computational methods were developed to detect these functional residues, generally known as ‘specificity-determining resides’ (SDRs). […] Based on the analysis, 7 amino acid residues in VH and 3 amino acid residues in VL were selected as the SDRs. The residues are labeled X₁ to X₁₀ for the ease of reference. The SDRs on VH are: Heavy chain D31 (HD31) (X₁), HK32 (X₂), HK54(X₃), HR100 (X₄), HY102 (X₅), HY103 (X₆) and HQ105 (X₇). The SDRs on VL are Light chain V32 (LV32) (X₈), LP94 (X₉) and LV95 (X₁₀). The SDRs were subsequently mutated by site-directed mutagenesis to other amino acids to generate mutant VH or VL clones. HEK293 cells were co-transfected with a vector encoding a mutant VH paired with a vector encoding a wild type VL or a vector encoding a wild type VH paired with a vector encoding a mutant VL. The antibody clones were harvested from the culture medium. The binding affinity of each antibody clone to human GM-CSF was tested by ELISA. The ELISA was done according to the following procedures. ELISA plate was coated with 50 μl of rhGM-CSF at 1 μg/mL. The plate was washed with 200 μl PBST for three times, followed by blocking with 1% BSA for 1 hour at room temperature. The antibody clones to be tested were diluted at 1:12000. 100 μl of the diluted antibodies were added to the cell at 100 μl/well. The plate was incubated at room temperature for 1 hour. The plate was then washed and incubated with 1:5000 diluted goat-anti-human secondary antibody conjugated with HRP at room temperature for one hour. The ELISA assay was developed with 100 μl developing buffer containing H₂O₂-Amplx Red per well in the dark for 5 min and the fluorescence intensity was read at Ex.530/Em.590 nm, with cutoff at 570 nm. The Unit Binding Activity (UBA) of each sample was calculated as the fluorescence signal/antibody clone dilution factor.

T1 sequence (P04141 18-144 limits assumed): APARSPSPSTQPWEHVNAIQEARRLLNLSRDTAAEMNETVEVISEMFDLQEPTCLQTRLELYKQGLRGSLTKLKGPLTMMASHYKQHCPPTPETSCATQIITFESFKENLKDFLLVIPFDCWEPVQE

Row | binding affinity % of 1D2 | Binder
1 | 89% | 1D2 SDR mutant HY102G (antibody, IgG1, V domains shown, also called X5 G) VH: QVQLVQSGAEVKKPGASVKVSCEASGYTFTDKYLHWVRQAPGQGLEWMAWINPKSGGTFYAQNFKGRVTVTRDTSINTAYLELTSLRLDDTSTYYCARGRDGYDQGAADLWGQGTMVTVSS VL: DIQLTQSPSSLSASVGDRVTITCRASQGINSVLAWYQQKPGKAPKLLLYAASKLESGVPSRFSGSGSGTDYTLTISSLQPEDFGTYYCQQYYSPVRTFGQGTKVEIKR
2 | 93% | 1D2 SDR mutant HR100T (antibody, IgG1, V domains shown, also called X4 T) VH: QVQLVQSGAEVKKPGASVKVSCEASGYTFTDKYLHWVRQAPGQGLEWMAWINPKSGGTFYAQNFKGRVTVTRDTSINTAYLELTSLRLDDTSTYYCARGTDYYDQGAADLWGQGTMVTVSS VL: DIQLTQSPSSLSASVGDRVTITCRASQGINSVLAWYQQKPGKAPKLLLYAASKLESGVPSRFSGSGSGTDYTLTISSLQPEDFGTYYCQQYYSPVRTFGQGTKVEIKR
3 | 71% | 1D2 SDR mutant HY102F (antibody, IgG1, V domains shown, also called X5 F) VH: QVQLVQSGAEVKKPGASVKVSCEASGYTFTDKYLHWVRQAPGQGLEWMAWINPKSGGTFYAQNFKGRVTVTRDTSINTAYLELTSLRLDDTSTYYCARGRDFYDQGAADLWGQGTMVTVSS VL: DIQLTQSPSSLSASVGDRVTITCRASQGINSVLAWYQQKPGKAPKLLLYAASKLESGVPSRFSGSGSGTDYTLTISSLQPEDFGTYYCQQYYSPVRTFGQGTKVEIKR
4 | 64% | 1D2 SDR mutant HY102I (antibody, IgG1, V domains shown, also called X5 I) VH: QVQLVQSGAEVKKPGASVKVSCEASGYTFTDKYLHWVRQAPGQGLEWMAWINPKSGGTFYAQNFKGRVTVTRDTSINTAYLELTSLRLDDTSTYYCARGRDIYDQGAADLWGQGTMVTVSS VL: DIQLTQSPSSLSASVGDRVTITCRASQGINSVLAWYQQKPGKAPKLLLYAASKLESGVPSRFSGSGSGTDYTLTISSLQPEDFGTYYCQQYYSPVRTFGQGTKVEIKR
5 | 68% | 1D2 SDR mutant HY102A (antibody, IgG1, V domains shown, also called X5 A) VH: QVQLVQSGAEVKKPGASVKVSCEASGYTFTDKYLHWVRQAPGQGLEWMAWINPKSGGTFYAQNFKGRVTVTRDTSINTAYLELTSLRLDDTSTYYCARGRDAYDQGAADLWGQGTMVTVSS VL: DIQLTQSPSSLSASVGDRVTITCRASQGINSVLAWYQQKPGKAPKLLLYAASKLESGVPSRFSGSGSGTDYTLTISSLQPEDFGTYYCQQYYSPVRTFGQGTKVEIKR
6 | 74% | 1D2 SDR mutant HR100V (antibody, IgG1, V domains shown, also called X4 V) VH: QVQLVQSGAEVKKPGASVKVSCEASGYTFTDKYLHWVRQAPGQGLEWMAWINPKSGGTFYAQNFKGRVTVTRDTSINTAYLELTSLRLDDTSTYYCARGVDYYDQGAADLWGQGTMVTVSS VL: DIQLTQSPSSLSASVGDRVTITCRASQGINSVLAWYQQKPGKAPKLLLYAASKLESGVPSRFSGSGSGTDYTLTISSLQPEDFGTYYCQQYYSPVRTFGQGTKVEIKR

The remaining lines, values behind:

Row | Binder | binding affinity % of 1D2
7 | 1D2 SDR mutant HR100C (antibody, IgG1, V domains shown, also called X4 C) VH: QVQLVQSGAEVKKPGASVKVSCEASGYTFTDKYLHWVRQAPGQGLEWMAWINPKSGGTFYAQNFKGRVTVTRDTSINTAYLELTSLRLDDTSTYYCARGCDYYDQGAADLWGQGTMVTVSS VL: DIQLTQSPSSLSASVGDRVTITCRASQGINSVLAWYQQKPGKAPKLLLYAASKLESGVPSRFSGSGSGTDYTLTISSLQPEDFGTYYCQQYYSPVRTFGQGTKVEIKR | 89%
8 | 1D2 SDR mutant HR100Q (antibody, IgG1, V domains shown, also called X4 Q) VH: QVQLVQSGAEVKKPGASVKVSCEASGYTFTDKYLHWVRQAPGQGLEWMAWINPKSGGTFYAQNFKGRVTVTRDTSINTAYLELTSLRLDDTSTYYCARGQDYYDQGAADLWGQGTMVTVSS VL: DIQLTQSPSSLSASVGDRVTITCRASQGINSVLAWYQQKPGKAPKLLLYAASKLESGVPSRFSGSGSGTDYTLTISSLQPEDFGTYYCQQYYSPVRTFGQGTKVEIKR | 57%
9 | 1D2 SDR mutant HR100E (antibody, IgG1, V domains shown, also called X4 E) VH: QVQLVQSGAEVKKPGASVKVSCEASGYTFTDKYLHWVRQAPGQGLEWMAWINPKSGGTFYAQNFKGRVTVTRDTSINTAYLELTSLRLDDTSTYYCARGEDYYDQGAADLWGQGTMVTVSS VL: DIQLTQSPSSLSASVGDRVTITCRASQGINSVLAWYQQKPGKAPKLLLYAASKLESGVPSRFSGSGSGTDYTLTISSLQPEDFGTYYCQQYYSPVRTFGQGTKVEIKR | 92%
10 | 1D2 SDR mutant HR100I (antibody, IgG1, V domains shown, also called X4 I) VH: QVQLVQSGAEVKKPGASVKVSCEASGYTFTDKYLHWVRQAPGQGLEWMAWINPKSGGTFYAQNFKGRVTVTRDTSINTAYLELTSLRLDDTSTYYCARGIDYYDQGAADLWGQGTMVTVSS VL: DIQLTQSPSSLSASVGDRVTITCRASQGINSVLAWYQQKPGKAPKLLLYAASKLESGVPSRFSGSGSGTDYTLTISSLQPEDFGTYYCQQYYSPVRTFGQGTKVEIKR | 80%
11 | 1D2 SDR mutant HR100M (antibody, IgG1, V domains shown, also called X4 M) VH: QVQLVQSGAEVKKPGASVKVSCEASGYTFTDKYLHWVRQAPGQGLEWMAWINPKSGGTFYAQNFKGRVTVTRDTSINTAYLELTSLRLDDTSTYYCARGMDYYDQGAADLWGQGTMVTVSS VL: DIQLTQSPSSLSASVGDRVTITCRASQGINSVLAWYQQKPGKAPKLLLYAASKLESGVPSRFSGSGSGTDYTLTISSLQPEDFGTYYCQQYYSPVRTFGQGTKVEIKR | 94%
12 | 1D2 SDR mutant HR100S (antibody, IgG1, V domains shown, also called X4 S) VH: QVQLVQSGAEVKKPGASVKVSCEASGYTFTDKYLHWVRQAPGQGLEWMAWINPKSGGTFYAQNFKGRVTVTRDTSINTAYLELTSLRLDDTSTYYCARGSDYYDQGAADLWGQGTMVTVSS VL: DIQLTQSPSSLSASVGDRVTITCRASQGINSVLAWYQQKPGKAPKLLLYAASKLESGVPSRFSGSGSGTDYTLTISSLQPEDFGTYYCQQYYSPVRTFGQGTKVEIKR | 72%
13 | 1D2 SDR mutant HR100L (antibody, IgG1, V domains shown, also called X4 L) VH: QVQLVQSGAEVKKPGASVKVSCEASGYTFTDKYLHWVRQAPGQGLEWMAWINPKSGGTFYAQNFKGRVTVTRDTSINTAYLELTSLRLDDTSTYYCARGLDYYDQGAADLWGQGTMVTVSS VL: DIQLTQSPSSLSASVGDRVTITCRASQGINSVLAWYQQKPGKAPKLLLYAASKLESGVPSRFSGSGSGTDYTLTISSLQPEDFGTYYCQQYYSPVRTFGQGTKVEIKR | 69%
14 | 1D2 SDR mutant HR100G (antibody, IgG1, V domains shown, also called X4 G) VH: QVQLVQSGAEVKKPGASVKVSCEASGYTFTDKYLHWVRQAPGQGLEWMAWINPKSGGTFYAQNFKGRVTVTRDTSINTAYLELTSLRLDDTSTYYCARGGDYYDQGAADLWGQGTMVTVSS VL: DIQLTQSPSSLSASVGDRVTITCRASQGINSVLAWYQQKPGKAPKLLLYAASKLESGVPSRFSGSGSGTDYTLTISSLQPEDFGTYYCQQYYSPVRTFGQGTKVEIKR | 125%
15 | 1D2 SDR mutant HR100P (antibody, IgG1, V domains shown, also called X4 P) VH: QVQLVQSGAEVKKPGASVKVSCEASGYTFTDKYLHWVRQAPGQGLEWMAWINPKSGGTFYAQNFKGRVTVTRDTSINTAYLELTSLRLDDTSTYYCARGPDYYDQGAADLWGQGTMVTVSS VL: DIQLTQSPSSLSASVGDRVTITCRASQGINSVLAWYQQKPGKAPKLLLYAASKLESGVPSRFSGSGSGTDYTLTISSLQPEDFGTYYCQQYYSPVRTFGQGTKVEIKR | 101%
